The source of these data is patent publication US11179342B2, “Peptide coacervates and methods of use thereof” (NANYANG TECHNOLOGICAL UNIVERSITY, priority 2018, dated 2021).

“Also recorded” adds a separate entry of the source.

The nature of this data set: Liquid-liquid phase separation by optical microscopy. Format: physicochemical. The settings on record: for ability to undergo LLPS / phase separation: various pH and salt (NaCl) concentration; for morphology of the separated phase: optical micrographs after LLPS; for range of conditions allowing LLPS: compared among variants; for highest pH at which LLPS was observed: N-variants, high salt; for minimal peptide concentration for LLPS at the highest pH: V7-N at pH 8, V6-N at pH 7, high salt. Here is the method:
In Example 2 below, phase separation behavior of protein variants and peptides was studied using a Zeiss Axio Scope A1 microscope (Carl Zeiss Pte Ltd., Germany) in the reflection mode, with differential interference contrast (DIC) filters. Images were taken with an AxioCam MRc 5 camera under the control of AxioVision software.
Liquid-liquid phase separation properties of protein variants and peptides at different buffer conditions were assessed using the method described in (Tan et al, Nat. Chem. Biol. 11, 488-495). Briefly, protein/peptide stock solution (10 mg/mL in 10 mM acetic acid, pH 3.3) was added to a buffer solution in a volume ratio 1:5 (protein/peptide stock:buffer). The mixture was then pipetted onto a microscopy glass slide and imaged using the optical microscope.

“GY-15-V1: 3 copies of the GHGLY motif arranged in tandem (GHGLYGHGLYGHGLY)”: the “ability to undergo LLPS / phase separation” value is recorded as “no phase separation was observed”.
The same measure, in the same setting: with “GH-25: synthetic peptide of HBP-1 repeats harboring only one GHGLY motif (GHGLHGAGFAGHGLYGAGFAGHGLH; HBP-1 derived peptide GH-25)” the entry was “remained in solution in all tested buffer conditions”.
In the case of “GHGLYGHGLHGHGLHGHGLHGHGLY (GHGLYGHGLHGHGLHGHGLHGHGLY) [GY-25-V2]”, the “morphology of the separated phase” value is listed as “only formed micro-droplets”.
As to “V3-C: C-terminus fragment of DgHBP-1 Lys mutant after trypsin cleavage, longest section of repetitive region (GHGLHGAGFAGHGLYGAGFAGHGLHGFAGHGLYGAGFAGHGLGLGGLHGALGHGALAHY; HBP-1 derived peptide V3-C)”, the “range of conditions allowing LLPS” value is “broadest pH range among all tested variants”. Moreover, the “lowest protein concentration of phase separation” value (pH 8) was 30 µM.
Take “GHGLYGAGFAGAGFAGAGFAGHGLY (GHGLYGAGFAGAGFAGAGFAGHGLY) [GY-25-V1]”: the “morphology of the separated phase” value was “dense and compact hydrogel”.
As for “GY-15-V2: GAGFA motif flanked by GHGLY (GHGLYGAGFAGHGLY; Artificial peptide GY-15-V2)”, the “ability to undergo LLPS / phase separation” value is given as “no phase separation was observed”.
With “GA-25: synthetic peptide of HBP-1 repeats harboring only one GHGLY motif (GAGFAGHGLHGAGFAGHGLYGAGFA; HBP-1 derived peptide GA-25)”, the “ability to undergo LLPS / phase separation” value is given as “remained in solution in all tested buffer conditions”.
For GAGFA [pentapeptide], the “ability to undergo LLPS / phase separation” value is “no phase separation was observed”.
On the same count and under the same terms, the entry for GHGLY [pentapeptide] is “no phase separation was observed”.
For “GHGLY GHGLY GHGLY GHGLY (GHGLYGHGLYGHGLYGHGLY) [GY-20]”, the “morphology of the separated phase” value is on record as “only formed micro-droplets” and the “ability to undergo LLPS / phase separation” value is reported as “Phase separation was observed”.

B1: V7-N: N-terminus fragment of DgHBP-1 Lys mutant after trypsin cleavage (protein)
chain: MQLYGAPAVGGVVENAVNAAESGAAATHDAQGAYAEADTAGVLDVNHAEHHDGVHDASGYGFGGLAGHGGFAGHGLYGPGFAGHGLLGAGYAGLGLHGAGFAGHGLHGAGFAGHGLYGAGFAK
modifications: HBP-1 derived peptide V7-N
notes: N-terminus fragment of DgHBP-1 Lys mutant after trypsin cleavage
For B1, the “highest pH at which LLPS was observed” value came to 8, the “minimal peptide concentration for LLPS at the highest pH” value is “at least 500 μM”, the “range of conditions allowing LLPS” value is reported as “over a wider range of conditions” and the “morphology of the separated phase” value is “hydrogels”. Besides, the “ability to undergo LLPS / phase separation” value is listed as “only at high salt concentrations”.

B2: DgHBP-1: recombinant histidine-rich beak protein 1 of Humboldt squid (Dosidicus gigas) (protein)
chain: QLYGAPAVGGVVENAVNAAESGAAATHDAQGAYAEADTAGVLDVNHAEHHDGVHDASGYGFGGLAGHGGFAGHGLYGPGFAGHGLLGAGYAGLGLHGAGFAGHGLHGAGFAGHGLYGAGFAGHGLHGFAGHGLYGAGFAGHGLGLGGLHGALGHGALAHY
modifications: Dosidicus gigas
For B2, for the setting “at minimal concentration”, the “pH range of LLPS” value is on record as 6.5-7.5. Besides, the “minimal concentration for LLPS” value (pH range 6.5-7.5) lay within 20 to 30 µM.

B3: V4-N: N-terminus fragment of DgHBP-1 Lys mutant after trypsin cleavage (protein)
chain: MQLYGAPAVGGVVENAVNAAESGAAATHDAQGAYAEADTAGVLDVNHAEHHDGVHDASGYGFGGLAGHGGFAGHGLYGPGFAGHGLLGAGYAGLGLHK
modifications: HBP-1 derived peptide V4-N
notes: as for B1
Turning to B3, the “ability to undergo LLPS / phase separation” value is given as “could not be induced”.

B4: V2-C: DgHBP-1 variant lacking the first 31 amino acids of the repetitive region, truncated at G98 (protein)
chain: MHHHHHHSSGVDLGTENLYFQSMMGAGFAGHGLHGAGFAGHGLYGAGFAGHGLHGFAGHGLYGAGFAGHGLGLGGLHGALGHGALAHY
modifications: HBP-1 derived peptide V2-C
notes: DgHBP-1 variant lacking the first 31 amino acids of the repetitive region, truncated at G98
Regarding B4, the “protein concentration required to form coacervates” value is given as “ca. 30 μmol” and the “ability to undergo LLPS / phase separation” value is listed as “formed coacervates”. For the setting “listed as V-2C”, the “ability to undergo LLPS / phase separation” value was “underwent LLPS in the same way as full-length protein”.

B5: V5-N: N-terminus fragment of DgHBP-1 Lys mutant after trypsin cleavage (protein)
chain: MQLYGAPAVGGVVENAVNAAESGAAATHDAQGAYAEADTAGVLDVNHAEHHDGVHDASGYGFGGLAGHGGFAGHGLYGPGFAGHGLLGAGYAGLGLHGAGFAGHGLHGAGFAK
modifications: HBP-1 derived peptide V5-N
notes: as for B1
For the molecule B5, the “highest pH at which LLPS was observed” value is reported as no more than 6, the “range of conditions allowing LLPS” value is “only under narrow conditions”, the “morphology of the separated phase” value is reported as “hydrogels” and the “ability to undergo LLPS / phase separation” value is on record as “only at high salt concentrations”.

B6: V3-N: N-terminus fragment of DgHBP-1 Lys mutant after trypsin cleavage (protein)
chain: MQLYGAPAVGGVVENAVNAAESGAAATHDAQGAYAEADTAGVLDVNHAEHHDGVHDASGYGFGGLAGHGGFAGHGLYGPGFAGHGLLGAGYAGLGLHGAGFAK
modifications: HBP-1 derived peptide V3-N
notes: as for B1
With B6, the “ability to undergo LLPS / phase separation” value is “could not be induced”.

B7: V6-N: N-terminus fragment of DgHBP-1 Lys mutant after trypsin cleavage (protein)
chain: MQLYGAPAVGGVVENAVNAAESGAAATHDAQGAYAEADTAGVLDVNHAEHHDGVHDASGYGFGGLAGHGGFAGHGLYGPGFAGHGLLGAGYAGLGLHGAGFAGHGLHGAGFAGHGLYK
modifications: HBP-1 derived peptide V6-N
notes: as for B1
With B7, the “highest pH at which LLPS was observed” value is recorded as 7, the “minimal peptide concentration for LLPS at the highest pH” value is 400 μM, the “range of conditions allowing LLPS” value is listed as “over a wider range of conditions” and the “morphology of the separated phase” value was “hydrogels”. Moreover, the “ability to undergo LLPS / phase separation” value was “only at high salt concentrations”.

B8: V1-C: DgHBP-1 mutant lacking the first 66 amino acids, containing all C-terminal modular repeats (protein)
chain: MHHHHHHSSGVDLGTENLYFQSMMGHGGFAGHGLYGPGFAGHGLLGAGYAGLGLHGAGFAGHGLHGAGFAGHGLYGAGFAGHGLHGFAGHGLYGAGFAGHGLGLGGLHGALGHGALAHY
modifications: HBP-1 derived peptide V1-C
notes: DgHBP-1 mutant lacking the first 66 amino acids, containing all C-terminal modular repeats
Consider B8, for which the “ability to undergo LLPS / phase separation” value was “underwent phase separation and formed coacervates; also recorded: underwent LLPS in the same way as full-length protein”.
